From a protein production outcome set (Wang et al. 2014)

Assay: label from the status in PepcDB records
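Note: failed if final PepcDB status was selected cloned or expressed and not failed if soluble or beyond.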

| Sequence | protein production |
| --- | --- |
| MKVKIYTRNGCPYCVWAKQWFEENNIAFDETIIDDYAQRSKFYDEMNQSGKVIFPISTVPQIFIDDEHIGGFTELKANADKILNKK | not failed |
| MAVFVALGAFLMTLAGGWTAQRVTDRRHLVLGLAGGLMLGVVGLDLLPEALEAAGDEVFGVPAALLLFVAGFLLAHLVERLLAARRAAHGADEHEHRSPEVGLTAAAAMVGHSAMDGVAIGAAFQVGGGMGAAVAMAVIAHDFADGFNTYTLTSLYGNARRRAVAMLVADAIAPVLGASSTLLFTIPEGALGAYLGLFGGVLLYLAAAEILPEAHHEHPARSTLLCTVAGAAFIWLVVGIAE | failed |
| GFVCDDFPKPQITVQPETQSAIKGSDVSFTCSAASSSDSPMTFAWKKDNEALQDAEMENYAHLRAQGGELMEYTTILRLRNVEFTSEGKYQCVISNHFGSSYSVKAKLTIN | not failed |
| MPKKRENRGRRKGDKGHVGYISCDQCGARVPEDKAVCVTKMYSPVDASLASELEKKGAIIARYPVTKCYCVNCAVFLGIIKIRAENERKQKARLRLEHHHHHH | failed |
| MALLAIDLDMFGHGSAGQVLGRTDVDRVEYQYSTKSLLSIYIFYEETCGFFIDEEKKVFVVFELDESQAYKYAYIIGENICLKKLDLGEVRTFSCPIVCSSSYVPS | failed |
| MAPQPFDIDTPSLRVFLPAPELATGRAIVACPGGGYGGLAVNHEGYDWAPYFNKQGIALIVLKYRMPHGDRTLPISDAEAAMKMARDSADVWNLNPYDIGIMGSSAGGHLASTIATHTRPELRPNFQILFYPVITMDKSYTHIGSHDNLLGKDAFAELETEFSNEKQVTKETPRAFIAYSDDDKTVPPANGVNYYLGLHKNHVPAVLHIYASGGHGWGIRENFIYLEHHHHHH | failed |
| MNKTELIKNVAQNAEISQKEATVVVQTVVESITNTLAAGEKVQLIGFGTFEVRERAARTGRNPQTGEEMQIAASKVPAFKAGKELKEAVK | not failed |
| MTFKRSLFFLLLLLSVATARAQIDVDRVITIGRNALYFNDYVVSIGYFNQVVGLRPWMAEPYFYRGIAKISLEDYTGAEADASACLQRNALIPKAYLLRGVARQNLGKIDSAIQDYRRGLELMPNDEGMLVNLTGVLTDSKRYAEAREGVAELLKFYPKSKQAHIALSAIELGEQDTVAAIRELNEVLRMDSLFAPAYSQMAMLHLKSKRNAEAMAALDKAIELEPSELSNYINRGVIRYQSNDLRGAMDDYSHVVRQKPNDKLARFNRALLRSYLGDVNNAIEDFDVVIRLEPENYHALYNRAILLTQINENRKAITDFDKVLGHYPDFVVGYYARSQAKKALGDTRGAERDYWRAFDIEKAAQSKTKKTKKSSSSTSTKETREDSDETIEKFNLLVVSEKSSEKRTRYSSRIRGRIQDNDVEVQPSPLFVLSYYEQSSSEEVPRVYYSEAIARFNDKKVLPKRLKPINREVALSQEQVAYHEQDITEISERTAGNADLCFRRALDYMLIQNLEQAIVDFDQAVELNKQFALAYFGRAIARAKLVEARQGASFIHQEAETVNAMTKALITTPRTNAMGVPAAAESPERKPAISDVDGELVMRDLNRTIELDPNFAYAYYNRAVLLARRGDTDAALSDYDRAIKAYPEFADAYFNRGLLLLSRGKAKEGIADLSRAGEYGLYKAYNIIKRMSTKS | failed |
| MPIKVKYYGNVVFASDAVCGQAENYATLKAMKEVGNYTISIQTFENAENVYPEEFLAKPVADEHYLTTEDGSVGIKGHYLDIVKELIEKDKVDIIFAGGKLGSLAKLAELTRPYGIPTLEHHHHHH | failed |
| AHKLFIGGLPNYLNDDQVKELLTSFGPLKAFNLVKDSATGLSKGYAFCEYVDINVTDQAIAGLNGMQLGDKKLLVQRASVGAKNA | not failed |
| MSLKIKVYLYTRVSTSIQIEGYSLEAQKSRMKAFAIYNDYEIVGEYEDAGKSGKSIEGRIQFNRMMEDIKSGKDGVSFVLVFKLSRFARNAADVLSTLQIMQDYGVNLICVEDGIDSSKDAGKLMISVLSAVAEIERENIRIQTMEGCIQKAREGKWNGEGHHHHHH | not failed |
| MAKSMRCKRVKRLRAIRREIVEKESFTLTREDAKSAAIEAALAAPKLPVRQAPVSPFMEVATPSSESASASTTIANDSDEEMDDEKKNKSLKPIGKKLKKKFKLGMKNRRSKGVLRGKRN | failed |
| MRNTFIVCWQYLRAFALIYLCLLAGNAVSALLPFTIPGSIIGMLVLFTLLASQILPAQWVKPGCYLLIRHMALLFVPIGVGVMNYYDLVNQQFGPIVVSCLISTFIVMLVVGFSTQIMQRERATAGDRTPPKDNE | failed |
| MDLTISNELTGEIYGPIEVSEDMALTDLIALLQADCGFDKTKHDLYYNMDILDSNRTQSLKELGLKTDDLLLIRGKISNSIQTDAATLSDEAFIEQFRQELLNNQMLRSQLILQIPGLNDLVNDPLLFRERLGPLILQRRYGGYNTAMNPFGIPQDEYTRLMANPDDPDNKKRIAELLDQQAIDEQLRNAIEYTPEMFTQVPMLYINIEINNYPVKAFVDTGAQTTIMSTRLAKKTGLSRMIDKRFIGEARGVGTGKIIGRIHQAQVKIETQYIPCSFTVLDTDIDVLIGLDMLKRHLACVDLKENVLRIAEVETSFLSEAEIPKSFQEGLPAPTSVTTSSDKPLTPTKTSSTLPPQPGAVPALAPRTGMGPTPTGRSTAGATTATGRTFPEQTIKQLMDLGFPRDAVVKALKQTNGNAEFAASLLFQ | failed |
| MSEMLYILQTVLLPIFIMIFLGYILQKKFTLDLNTLAKLNIYVFVPGFIFVKFYKTHFALSLLFYIIIFFVIYMFVLFLIGKLLSMFRKTDKGETTTLTNSLMFFNSGNYGVPVNDLVFKGDPLAMSVQVIVLSLQNIFTFSYGVFAIQSLHIGKLKALLGYFKMPVLYALLLAIILNYNHIPIPEFIWTPANYVADAMIAIALLMLGAQISNIKFSLKWSKSYAYVFIRLIIGPLIALVIIKIMGIEGIIAQTLFIASAMPTSVNSSVIAQEYDNHPELAAELVFLSTLLSAITVVIVIYMSKILF | failed |
| MFFLRTTKRMESYSQNSNKLDFQHEARILNSIWLITALGLVATAGLAWGAKYLEITATKYDSPQMYVAIGLLLLSMYGLSKDINKINTAIAGVIYLFLISLVAIVVASLAPVSAIIVVFSTAGSMFLISMLAGLLFKFDPGSHRFIIMMTLTGLALVIIVNATLMSERPIWVISCLMIVLWSGIISHGRNKLLELTGKSHSEELWSSVRCAFIGALTLYYYFIGFFGILAAIAITLVWQRHTRFFH | failed |
| MRVAIAGAGAVGRSIAGELLENGHEVLLIDKAPTAISVERVPMAEWLLADACEITSLDEAALQRCNVVIAATGDDKVNLVVSLLAKTEYGVPRVVARVNNPKNEWLFNESWGVDVAVSTPRLMSALVEEAVSVGDLVRLLRFSHGDANLVELTLPEESALAGTQVGDVQWPEDTSLVTIIRGTRVLTPSREDSLEAGDELLFVAAQAREEQLEDLLSARRQPDGTL | failed |
| LPDQRTVLYVHGGAWFQDPLENHFEYLDLLVDALDARVIMPVYPKIPHRDYRTTFELLTKIYKRLLTKIDEPENLVIIGDSAGGQIALAFAQMLKKEQLSQPGHIVLISPVLDATFKNPEARKYEKEDPMLGIDGSKYLVELWAGDAPLDDYKMSPMNGDLEGLGHITLTVGTKETLYPDAVKFSHMLNDKGIKHQFIPGYNLFHIYPLFPIPERQRFLEQLKKIIVTKEL | not failed |
| MDDVGRYQCLAVNEMGTVKKVVTVVLQSAPVFQVEPRDVTVRSGVDVELRCRATGEPVPTIEWLRAGRPLQAGRKLRALPDGSLWLEHVEAGDAGVYECVAHNRLGSVTAKALLAVRGEPRGSRGSMTGVINGQEFGMATLNISVLQQGSSEAPTIWSSISHVPASVGPLMRVLVVTIAPIYWALARESGEALNGYSLTGGSFQQESQMEFSTGELLTMTQVARGLDPDGLLLVDMKINGMIPESLADGDLRVQDFQEHYVQTGPGQLFAGSTQRFLHDSLPASLRCNHSIQYDETRGLQPQLVQHLRASSISSAFDPEAEALNFQLTTALQTEENEVGCPEGFEPDVQGAFCVDKDECSGGPSPCSHTCRNAPGHFSCSCPTGFSLAWDHRNCRDVDECAGDTHLCQEEQRCVNLLGSYNCLASCRPGFRVTADGSNCEDVDECLEQLDECHYNQLCENTPGGHHCGCPRGYRQQGHSLPCLDINECLQLPTPCVYQCQNLQGSYRCLCPPGQTLLRDGRTCIPLERNRQNITIVSHRSPFGPWLRSRVPRPSSSYHTWVSLRPGSGALNSVGRAWCPPGFIRQDGVCADLDECRVRSLCQHACQNTEGSYYCLCPSGYRLLPSGKNCQDINECEEDGIECGPGQMCFNTRGSFQCVDTPCPTTYRQGSSPGTCFRRCSQDCSASGPSTLQYRLLPLPLGVRAHHDVARLAAFSEAGIPANRTELTVLEPDPRSPFALRQLRAGQGAVYTRRALTRAGLYRLTVRAAAPRHQSVYILLIAVSPYPY | failed |
| MSHLYDPTTQYYTGEYPKQKQPAPGVQAKMTPVPDCGEKSYVGSGRLKDRKALVTGGDSGIGRAAAIAYAREGADVAINYLPAEEEDAQQVKALIEECGRKAVLLPGDLSDESFARSLVHKAREALGGLDILALVAGKQTAIPEIKDLTSEQFQQTFAVNVFALFWITQEAIPLLPKGASIITTSSIQAYQPSPHLLDYAATKAAILNYSRGLAKQVAEKGIRVNIVAPGPIWTALQISGGQTQDKIPQFGQQTPMKRAGQPAELAPVYVYLASQESSYVTAEVHGVCGGEHLG | not failed |
| MYALVDAVSFYASAEKVFDPSIRNKPVVVLTNNDGCICAVCPIARRLGIPKFIPYFQVKSLLEKHGVVVRSSNYELYADLSERMMNVIGRFCDNQYIYSIDESFLYFDHYESCINDWHEYGHKIRKAIWKETRLPVGVGFGETATLSKAANHAAKKLSGFNGVAVINSAVSRDKILKRMAVDEVWGIGRKISKRLGLEGINNAAQLAEQDPKHIRKQFSVVTERTVNELNGISCLSWDEVKSPKKEIFSTRSFGQRITTKNELRSALVTHAAIVGRKVRRQNSLIKKLMIFASNSPHDDLYYKQSMVFPFIIATENTCEMARAVNQVIDSIYKAGIKFYRCGVGAIELNSKTFIQPDLFMPDHTNSNVMKCLDNVNHRYGDSTLKLAAEGHHEKWQMRRAFLSPQYTSQWRDIPKIQC | failed |
| MPALSGPQYLGEGLKLIMRPGLRLFVLIPLTLNLLVFALLIGFAMQQFSHWVDLLMPSLPDWLSFLQYIVWPLFVLLVLVIVFFTFTMVANIISAPFNGFLSEKVEVVVRGRDDFPPFSWAELLAMIPRTMGREMRKLAYFLPRALVLLVLSFVPGVNLIATPLWILFGIWMMAVQYIDYPADNHKLGWNEMLAWLRSKRWACMGFGGVTYLALLIPLVNLVMMPAAVAGATLFWVREEGERALVK | failed |
| MKIQLDINGTEIQKGVWVGSGAIIEPGAILNPPCVIGDNCRIESGAVIDSLSVIGNNNVIERDSSVKRSVIWDGNYIEYGSKIRGAILCSKTNLKRYVHIFENAIVGDNCLINERVVIKPNIKIWPQKTVEPFAIVDRNIIWGSKLEHHHHHH | failed |
